Data reported in PMC2175199 (The Journal of Cell Biology, 2000).
Blank lines part the entries; values can stand above or below the binder they belong to.

Biological target: T1, XSA2 (Xenopus laevis (endogenous in egg …, UniProt Q9DGN0 1-1194))
T1 sequence: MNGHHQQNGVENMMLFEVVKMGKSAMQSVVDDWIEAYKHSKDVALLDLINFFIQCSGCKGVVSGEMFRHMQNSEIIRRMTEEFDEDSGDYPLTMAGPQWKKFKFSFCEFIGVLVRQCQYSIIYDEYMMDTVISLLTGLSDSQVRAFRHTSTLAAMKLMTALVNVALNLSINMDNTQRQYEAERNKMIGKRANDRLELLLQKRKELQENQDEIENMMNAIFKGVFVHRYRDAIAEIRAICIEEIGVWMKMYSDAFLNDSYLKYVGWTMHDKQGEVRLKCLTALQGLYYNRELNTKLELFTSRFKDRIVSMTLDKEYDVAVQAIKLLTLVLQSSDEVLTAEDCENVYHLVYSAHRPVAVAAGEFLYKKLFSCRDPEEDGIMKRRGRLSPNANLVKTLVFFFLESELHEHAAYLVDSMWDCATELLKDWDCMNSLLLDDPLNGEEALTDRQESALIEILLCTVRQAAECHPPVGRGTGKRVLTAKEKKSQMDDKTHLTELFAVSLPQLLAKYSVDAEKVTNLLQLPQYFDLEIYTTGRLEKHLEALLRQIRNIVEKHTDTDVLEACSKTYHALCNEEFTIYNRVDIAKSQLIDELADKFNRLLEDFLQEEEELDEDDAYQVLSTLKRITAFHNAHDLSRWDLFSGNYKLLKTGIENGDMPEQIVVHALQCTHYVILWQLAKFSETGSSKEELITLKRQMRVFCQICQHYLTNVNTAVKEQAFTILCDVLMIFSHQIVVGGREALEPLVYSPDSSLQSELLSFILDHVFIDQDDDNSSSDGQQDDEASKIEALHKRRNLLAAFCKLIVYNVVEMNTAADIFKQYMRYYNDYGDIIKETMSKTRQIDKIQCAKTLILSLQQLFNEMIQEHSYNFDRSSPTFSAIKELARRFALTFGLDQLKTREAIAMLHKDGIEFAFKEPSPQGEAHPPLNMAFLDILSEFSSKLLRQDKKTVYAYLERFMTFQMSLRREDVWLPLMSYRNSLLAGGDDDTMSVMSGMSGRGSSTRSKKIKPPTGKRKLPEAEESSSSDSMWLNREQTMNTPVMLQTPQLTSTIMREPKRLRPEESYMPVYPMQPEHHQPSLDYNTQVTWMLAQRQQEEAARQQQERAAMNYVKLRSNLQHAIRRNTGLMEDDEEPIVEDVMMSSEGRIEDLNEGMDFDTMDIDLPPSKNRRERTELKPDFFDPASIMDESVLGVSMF
Test: co-IP

percent depleted from the extract by anti-XSA2: ~5%
B1: XSMC3 (natural protein)
chain: MYIKQVIIQGFRSYRDQTIVDPFSSKHNVIVGRNGSGKSNFFYAIQFVLSDEFSHLRPEQRLALLHEGTGPRVISAFVEIIFDNSDNRLPIDKEEVSLRRVIGAKKDQYFLDKKMVTKNDVMNLLESAGFSRSNPYYIVKQGKINQMATAPDSQRLKLLREVAGTRVYDERKEESISLMKETEGKRDKINELLKYIEERLHTLEEEKEELAQYQKWDKMRRALEYTIYNQELNETRAKLDELSSKRETSGEKSRQLRDAQQDARDKMEEIERQVRELKSKISAMKEEKEQLSSERQEQIKQRTKLELKTKDLQDELAGNSEQRKRLLKERQKLLEKIEEKQKELAETEPKFSSVKQKEESGIARLAQATQERTDLYAKQGRGSQFTSKEERDKWIKKELKSLDQAINDKKRQIAAINKDLEETEVNKEKNLEQYTKLDQDLNEVKTRVEELDKKYYEVKNKKDELQSERNYLWREENAEQQSLAAKREDLEKKQQLLRAATGKAILNGIDSINKVLEHFRRKGINQHVINGYHGIVMNNFDCEPAFYTCVEVTAGNRLFYHIVESDEVSTKILMEFNKMNLPGEVTFLPLNKLDVRDTAYPETNDAIPMISKLRYNLRFDKAFKHVFGKTLICRSMEVSTQLARAFTMDCITLEGDQVSHRGALTGGYYDTRKSRLELQKDVRKVEDELHALEAKLNENLRRNIERINNEIDQLMNQMQQIETQQRKFKASRDSILSEMKMLKEKRQQSEKTFMPKQRSLQSLEASLHAMESTRESLKAELGTDLLSQLSLEDQKRVDALNDEIRQLQQENRQLLNERIKLEGTITRVETYLNENLRKRLDQVEQELNELRETEGGTVLTATTSELEAINKRVKDTLARSEGLDITIDKTEVESKDLVKSMDRWKNMEKDHMDAINHDTKELEKMTNRQGMLLKKKEECMKKIRELGSLPQEAFEKYQTLSLKQLFRKLEQCNTELKKYSHVNKKALDQFVNFSEQKEKLIKRQEELDRGHKSIMELMNVLELRKYEAIQLTFKQVSKNFSEVFQKLVPGGKATLVMKKGDVEGSQSQDEGEGSTQSSVPSVDQFTGVGIRVSFTGKQAEMREMQQLSGGQKSLVALALIFAIQKCDPAPFYLFDEIDQALDAQHRKAVSDMIMELASHAQFITTTFRPELLESADKFYGVKFRNKVSHIDVITAEQAKDFVEDDTTHG

percent depleted from the extract by anti-XSA2: ~5%
B2: XSMC1 (natural protein)
chain: MGFLKLIEIENFKSYKGRQIIGPFHRFTAIIGPNGSGKSNLMDAISFVLGEKTSNLRVKTLRDLIHGAPVGKPAANRAFVSMVYSEDSGEEKVFSRVIVGGSSEYKINNKVVQLSEYSDSLEKLGILIKARNFLVFQGAVESIAMKNPKERTALFEEISRSGELAQEYDKRKKEMVKAEEDTQFNYHRKKNIAAERKEAKQEKEEAERYQRLKDEVARAQIQLQLFKLYHNESEIEKLNKELSVKNKGIEKDKKHMDKVEEELKDKKKELGKMMREQQAIEKEIKEKDAELNQKLPQYIKAKENPSHKIKKFRAAKKSLQNAQKQYKKRKADMDELEKEMLSVEKARQEFEERMEEESQSQGRDLTLEENQVKKYHRLKEEASKRAATLAQELEKFNRDQKADQDRLDLEERKKVETEAKIKQKLRELEENQKRIEKLEEYIATSKQSLEEQKNLEETLTEEVEMAKRRIDEINSELNQVMEQLGDARIDRQESSRQQRKAEIMESIKRLYPGSVYGRLIDLCQPTQKKYQIAVTKVLGKNMDAIIVDSEKTGRDCIQYIKEQRGEPETFLPLDYLEVKPTDERLRELKGAKLVIDVIRYEPPHIKKALQYACGNALVCDNVEDARRIAFGGHQRHKTVALDGTLFQKSGVISGGASDLKAKARRWDEKAVDKLKEKKERLTEELKEQMKAKRKEAELRQVQSQAHGLQMRLKYSQSDLEQTKTRHLAMNMQEKSKLESELANFSPRINDIKRIIQSRDREMKDLKEKMNQVEDEVFEEFCREIGVRNIREFEEEKVKRQNEIAKKRLEFENQKTRLGIQLDYEKNQLKEDQGKVQTWEQSVKKDDNEIEKLKKEEQRHMKIIDETMAQLQDLKNQHLAKKSEVNDKNHLMEDIRKKLGSANKEVTHLQKEVTAIETKLEQKRSDRHNLLQACKMSDIKLPLSKGTMDDISQEEGSSQGEESASSSQRSSTVYAKEALIEIDYSDLSEDLKDAVADDDIKQEMSALHQKINEQQSILQRISAPNMKAMEKLESVRDKFQETSDEFEAARKRAKKAKQAFEQTKKERFDRFNACFESVATNIDEIYKALSRNSSAQAFLGPENPEEPYLDGINYNCVAPGKRFRPMDNLSGGEKTVAALALLFAIHSYKPSPFFVLDEIDAALDNTNIGKVANYIKEQSMSNFQAIVISLKEEFYTKAESLIGVYPEQGDCVISKVLTFDLTKYPDANPNPND
